Experiment [1] has as its target T1, human Kv1.3 (Homo sapiens, UniProt P22001).
T1 construct: cell lines stably expressing the full length human Kv1.3 channel
The experiment can be described thus: IonWorks Quattro automated perforated patch clamp, Kv1.3-expressing CHL cells. To be noted: monovalent Nanobodies, sustained current P1. It counts as cell-based. From the text:
Selected Nanobodies were electrophysiologically characterized on human Kv1.3 on the IonWorks automated perforated-Patch Clamp using Kv1.3-expressing Chinese Hamster Lung (CHL) cells. The procedure for evaluating the modulatory effect of the purified Nanobodies on human Kv1.3 via electrophysiological recordings is given below.
IonWorks Quattro (Molecular Devices) is a second-generation screening instrument that provides membrane voltage control and provides a direct electrophysiological assay for screening and characterization of compounds. It is an automated, high-throughput planar perforated patch clamp that uses a 384-well PatchPlate™ substrate.
Extracellular solution contained (in mM): 138 NaCl, 2.7 KCl, 0.9 CaCl2, 0.5 MgCl2, 8 Na2HPO4, and 1.5 KH2PO4 (pH 7.3 with NaOH, and 285-290 mOsmolar). The intracellular solution contained (in mM): 100 K-gluconate, 40 KCl, 3.2 EGTA, 5 HEPES and 3.2 MgCl2 (pH 7.3 with KOH, and 300-315 mOsmolar). These solutions were freshly made, stocked for no longer than a month at 4° C. and filtered prior to use. The selected Nanobodies were directly diluted in extracellular solution to obtain a 3 μM sample solution. […]
The basic principles of IonWorks automated patch clamp electrophysiology are described by Schroeder et al. (J Biomol Screen 8(1):50-64, 2003). […] In PPC mode, an ensemble average of the current from up to 64 cells per well was recorded. […]
On the technique in general: The patch-clamp technique gives a direct electrical read-out from membranes.

Experiment [2] deals with T1, human Kv1.3. The experiment can be described thus: IonFlux automated patch clamp, Kv1.3-expressing HEK293H cells. Format: cell-based. To be noted: monovalent Nanobodies, concentration at which Kv1.3 current is 50%. The source says:
Periplasmic extracts were electrophysiologically screened for inhibitory effects on the voltage-gated potassium channel Kv1.3 on the IonFlux™ automated Patch Clamp using Kv1.3-expressing HEK293H cells. The complete procedure for evaluating the modulatory effect of periplasmic extracts on human Kv1.3 via electrophysiological recordings is given below.
The IonFlux™ (Molecular Devices) is an automated patch clamp system with integrated Well Plate Microfluidic™ Technology, temperature control and continuous perfusion and voltage clamp. The IonFlux™ 16 has sixteen parallel amplifiers and uses 96-well IonFlux plates conform to the Society for Biomolecular Sciences. This system allows both population and single cell patch clamp.
Extracellular solution contained (in mM): 132 NaCl, 5.4 KCl, 1.8 CaCl2, 0.8 MgCl2, 10 HEPES, 5 glucose (pH 7.2 with NaOH, and 285-290 mOsmolar). Intracellular solution contained (in mM): 40 KF, 100 KCl, 2 MgCl2, 10 HEPES, 5 EGTA (pH 7.45 with CsOH, and 300-315 mOsmolar). These solutions were freshly made, stocked for no longer than a month at 4° C. and filtered prior to use. […]
HEK293H cells stably expressing the human Kv1.3 channel were generated in house. […] Cells were counted (Casy T T, Roche), suspended at 1 million cells/ml, transferred to a new 50 ml conical CELLSTAR® tube and gently shaken at RT for approximately 20 min. […]

In another experiment the test system is CCR7−CD45RA− T cells. It counts as cell-based, human. As to conditions: for IC50: monovalent Nanobodies. From the text: The purified anti-Kv1.3 Nanobodies were characterized in a T Cell-activation assay. Human T Cells were first collected from Buffy Coat blood (from healthy volunteers, Bloodbank Gent) using RosetteSep (StemCell Technologies, #15061) followed by an enrichment on Ficoll-Paque™ PLUS (GE Healthcare #17-1440-03). CCR7−CD45RA− T cells were isolated through negative selection using biotinylated antibodies against CD45RA (BD Bioscience #624008) and CCR7 (BD Bioscence #624009) in addition to the Dynabeads Biotin Binder (Invitrogen #110.47). The purity of the population was afterwards checked with anti-CD3 (eBioscience #12-0037-73); anti-CD8 (BD Bioscience #345775); anti-CD4 (BD Bioscience #345771); anti-CD45RO (BD Bioscience #555493); anti-CD45RA (BD Bioscience #550855); anti-rat IgG (Jackson ImmunoResearch Laboratories #112-116-143); anti-CD19 (BD Bioscience #555413) and anti-Human CCR7 (R&D Systems #MAB197) labeled antibodies in flow cytometric assay.
Isolated CCR7^−CD45RA^− T Cells were then stimulated on anti-CD3 (eBioscience 16-0037-85; 540 ng/ml) coated 96-well plates at a concentration of 200 000 cells/well in absence or presence of dilution series of anti-Kv1.3 antibodies and ShK positive control (Smartox, #08SHK001). After 72 h, IFN-gamma production was measured with anti-human IFNγ antibody capture in ELISA (BD Bioscence #551221) combined with biotinylated anti-human IFNγ (BD Bioscience, #554550) and streptavidin-HRP (Dakocytomation #P0397) as detection (FIG. 11A-11B).
In addition, also CD25 expression was measured in flow cytometry, using an anti-CD25 antibody (BD Pharmingen, cat 557138) (FIG. 11C-11D). […]

Read-outs that look alike come from different tables or passages of the source.

T1 sequence (P22001 whole entry): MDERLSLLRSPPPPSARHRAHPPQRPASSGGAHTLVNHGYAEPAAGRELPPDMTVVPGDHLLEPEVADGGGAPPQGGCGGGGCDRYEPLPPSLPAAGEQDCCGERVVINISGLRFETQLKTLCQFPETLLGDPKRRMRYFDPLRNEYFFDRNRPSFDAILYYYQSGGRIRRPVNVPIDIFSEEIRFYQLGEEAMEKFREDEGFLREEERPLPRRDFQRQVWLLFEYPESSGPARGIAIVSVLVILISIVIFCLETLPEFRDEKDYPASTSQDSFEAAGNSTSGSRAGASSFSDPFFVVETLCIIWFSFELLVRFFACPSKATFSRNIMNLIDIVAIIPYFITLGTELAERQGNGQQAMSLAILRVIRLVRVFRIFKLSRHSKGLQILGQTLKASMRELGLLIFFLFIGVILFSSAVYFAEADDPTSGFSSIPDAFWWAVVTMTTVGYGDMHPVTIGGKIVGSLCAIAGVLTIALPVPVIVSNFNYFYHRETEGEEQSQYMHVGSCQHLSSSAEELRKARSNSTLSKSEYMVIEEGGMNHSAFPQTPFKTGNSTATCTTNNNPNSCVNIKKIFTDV

B1: A0194016B04: monovalent anti-Kv1.3 Nanobody, family 12 (protein)
VHH: EVQLVESGGGLVQAGGSLRLSCSASGLLFSVNSAGWYRQAPGKQRDFVARIRSGGSTNYADSVKGRFTISRDKATNTLYLQMNNLKPEDTAVYYCSSWRTEAYEYWGRGTLVTVSS
modifications: Nanobody sequence
As to B1, the 50% inhibitory concentration (IC50) (in general, the midpoint of a concentration-inhibition curve) in the experiment with human Kv1.3 [1] is 34 nM; with human Kv1.3 [2], 84 nM.

B2: A0194020A06: monovalent anti-Kv1.3 Nanobody, family 12 (protein)
VHH: EVQLVESGGGLVQAGGSLGLSCSASGLLFSRNSAGWYRQAPGKRREFVARIRMGGSINYADSVKGRFTVSRDNAKNMMYLQMNDLKPEDTAVYFCSGWREGFYEYWGQGTLVTVSS
modifications: Nanobody sequence
Regarding B2, the “inhibition of T-cell stimulation (IFNγ, CD25), in words” value in the experiment on CCR7−CD45RA− T cells (anti-CD3 stimulation) is listed as “clearly inhibited”. Further, the IC50 in the experiment with CCR7−CD45RA− T cells (plate bound anti-CD3, 72 h, read-out: IC50 (in M) IFNγ read out) amounted to 30 nM; in the experiment with CCR7−CD45RA− T cells (plate bound anti-CD3, read-out: IC50 (in M) CD25 read out), 36 nM; with human Kv1.3 [2], 13.4 nM.

For the origin of these results see patent publication US11149086B2, “KV1.3 binding immunoglobulins” (Ablynx N.V., priority 2014, dated 2021).
